Measured values from patent US20080153161A1, “Genetically Encoded Photosensitizers and Methods for Using Same” (priority 2005, published 2008).
Entries after “also recorded” stand apart in the source; their conditions may differ. Where a SMILES comes first, the peptide text is derived from it. The star is where a group is joined. Cbz = O=C(OCc1ccccc1)*; CH2F = FC*

Key:
B16 melanoma cells [1] = assay: Phototoxicity of TMRM compared with mitochondrial KillerRed in B16 melanoma cells; type: cell-based; conditions: 100 nM, 3.3 W/cm2 green light
Protocol: The phototoxicity of mitochondrial KillerRed was compared with the phototoxicity of tetramethylrhodamine (TMRM)—a red fluorescent dye capable of producing ROS which accumulates in mitochondria of living cells. B16 melanoma cells were preincubated with 100 nM TMRM for 20 min at 37° C. and irradiated by 3.3 W/cm2 green light (40× objective, 535-575 nm) for time periods of 10 sec, 1 min, 5 min, and longer. […] Irradiation for 1 min led to cell death within 30-40 min. The effect was similar to that obtained by 15-min irradiation of the KillerRed-expressing cells under the same conditions.

B16 melanoma cells [2] = assay: Light-induced killing of B16 melanoma cells expressing mitochondrially targeted KillerRed; type: cell-based; conditions: pre-incubated with 10 μM inhibitor, 1.5 hour post illumination
From the text: Mitochondrial localization of a photosensitizer is known to be effective in photodynamic therapy, leading preferentially to apoptotic cell death. To provide for a more pronounced phototoxic effect, KillerRed was targeted to mitochondria by cloning it in frame with a double N-terminal mitochondrial localization signal and the resulting construct was transiently transfected into B16 melanoma cells. Exposure of mitochondrially targeted KillerRed expressing B16 melanoma cells to green light for 15 minutes using lower irradiation intensity (40× objective, 535-575 nm excitation filter, 3.3 W/cm2) led to nearly 100% cell death within 45 min after irradiation (FIG. 8B). If pre-incubated with 10 μM pancaspase inhibitor zVAD-fmk, the cells survived identical irradiation and preserved their native shape within 1.5 hour post illumination. This indicates the apoptotic way of the mitochondrially targeted KillerRed-mediated cell death.

beta-gal [3] = assay: Inhibitory analysis with specific ROS quenchers in the in vitro beta-gal CALI system; type: biochemical, E. coli; conditions: superoxide dismutase 500 u/ml with catalase 500 u/ml; mannitol 67 mM; sodium azide 20 mM
Protocol: White and hatched columns show β-gal activity for the intact and irradiated samples, respectively.
The mechanism of the KillerRed-mediated effect was tested using inhibitory analysis. A specific ROS quenchers were added to the in vitro beta-gal CALI system described above (FIG. 6).

[4] = system: E. coli (XL1-Blue strain); assay: Screening of fluorescent and chromo-proteins for phototoxic effect in E. coli (CFU after white light); type: cell-based; conditions: for phototoxic effect: E. coli expressing the protein, white light 1 hour, CFU irradiated vs non-irradiated
From the text: Looking for a GFP-like protein, which could be used as an efficient photosensitizer, we screened different proteins for a phototoxic effect in E. coli including: • (1) Anemonia majano fluorescent protein AmCyan (also noted to as FP486, GenBank ID AF168421; Clontech); • (2) Zoanthus sp. fluorescent protein ZsGreen FP506 (also noted to as FP506, GenBank ID AF168422; Clontech); • (3) red fluorescent protein DsRed2 (Clontech); • (4) Anemonia sulcata GFP-like chromoprotein asulCP FP595 (also noted to as FP595, GenBank ID AF246709); • (5) asulCPW94F protein, a mutant of chromoprotein FP595 comprising W94F amino acid substitution; • (6) commercially available red fluorescent protein AsRed2 (Clontech); • (7) Dendronephthya sp. green fluorescent protein dendGFP (GenBank ID AF420591); • (8) Goniopora tenuidens GFP-like chromoprotein, gtenCP (GenBank ID AF383156); • (9) aceGFP (GenBank ID AY233272); • (10) circularly permutated aceGFP (GenBank ID AY233272) variant, cpT1 having nucleotide and amino acid sequences shown in SEQ ID NOS: 5, 6.; • (11) monomeric mutant of dendGFP protein, dendQ4mono, having nucleotide and amino acid sequences shown in SEQ ID NOS: 7, 8.; • (12) EGFP, the most popular Aequorea GFP mutant variant (GenBank ID U55763); • (13) chromoprotein am2CP(PCT/RU03/00474; SEQ ID NOS: 9, 10); • (14) red fluorescent protein KillerRed (JR18IC+)(SEQ ID NOS: 3, 4), developed on the basis of chromoprotein am2CP by random mutagenesis; and • (15) non-colored mutant of FP506 protein, ZsGreenY66A, containing mutation Y66A which eliminates the chromophore, was used as a negative control.
Synthetic genes encoding proteins listed above were cloned into the pQE30 vector and transformed into E. coli (XL1-Blue strain). For each protein tested, protein expressing cells were taken from one E. coli colony, diluted into 1 ml of PBS buffer and divided into two portions. One of them was irradiated with white light (light source Fiber-Light from Dolan-Jenner Industries, Inc) for 1 hour. Then both samples aliquots were sowed to the Petri dishes at different dilutions. The number of growing colonies corresponded to the number of bacteria cells surviving after irradiation (i.e. colony forming units, CFU). The CFU number for the irradiated E. coli portion was compared to non-irradiated one, thus allowing an estimate of the relative phototoxic effect for every of the proteins tested.
Comparing to the wild type chromoprotein anm2CP, KillerRed contains amino acid changes T145N and C161A (corresponding to positions 148 and 165 in Aequorea victoria GFP), which are spatially close to the chromophore and affect fluorescent properties, and a number of folding mutations. […]

[5] = system: E. coli (XL1-Blue strain); assay: Time course of survival of E. coli expressing fluorescent proteins under white light; type: cell-based
Protocol: To compare the KillerRed phototoxic effect with the effect of DsRed2 fluorescent protein, pQE30 vectors encoding KillerRed, DsRed2 or ZsGreenY66A non-colored protein were prepared as described in Example 1. E. coli (XL1-Blue strain) were transformed with said pQE30 vectors. The cells expressing ZsGreenY66A was used as a negative control. We estimated the percent of cells surviving after bacteria irradiation for 5, 10, 20, 40 and 60 minutes. […] The graph of FIG. 2 indicates the number of colonies, which grew without irradiation and after irradiation for the corresponding period of time.

E. coli = assay: Action spectrum of KillerRed phototoxic effect (green vs blue light); type: cell-based
From the text: FIG. 3 illustrates excitation (dotted line) and emission (solid line) spectra for KillerRed protein. Hatched and white rectangles show relative phototoxic effect from irradiation with blue (460-490 nm) and green (540-580 nm) light, respectively. Numbers above the rectangles represent the decrease in the number of viable cells after 10-min irradiation (folds).
Further we roughly checked the action spectrum for KillerRed phototoxic effect (FIG. 3).

293T human kidney cells = assay: Light-induced killing of 293T cells expressing KillerRed in cytoplasm; type: cell-based
From the text: For expression in eukaryotic cells, the PCR-amplified Agel-NotI fragments from pQE30 vectors encoding KillerRed and DsRed2 (obtained as described in the Example 1) were PCR amplified and inserted in lieu of the EGFP-coding region in the pEGFP-N1 vector (Clontech).
293T human kidney cells were transiently cotransfected with these vectors and the AcGFP1-C1 vector (Clontech) using Lipofectamine reagent (Invitrogen). The cells of interest were characterized with high expression levels of both green fluorescent protein AcGFP1 and KillerRed (or DsRed2 in a control experiment). Cells were irradiated with intense green light for 10 min (100× objective, 535-575 nm excitation filter, 5.8 W/cm2). Mortality of irradiated KillerRed expressing cells reached 40-60%, depending on protein concentration (FIG. 8A).
At the same time, neighboring cells with a lower KillerRed expression level survived irradiation, presumably due to the lower concentration of the phototoxic agent. […] A Leica confocal inverted microscope TCS SP2 equipped with 125 mW Ar and 1 mW HeNe lasers was used for cell imaging. A LaserCheck (Coherent) power meter was used to measure total power of the excitation light after the microscope objective.

beta-gal [6] = biological target: beta-gal (Escherichia coli, UniProt P00722, DEL12-42); conditions: beta-gal mixed with KillerRed (unfused), E. coli extracts
Protocol: O-nitrophenyl (ONP) absorption after 15 min o-nitrophenyl-D galactoside (ONPG) incubation is proportional to β-gal enzymatic activity.
Aliquots were either incubated under white light (1 W/cm2, light source Fiber-Light from Dolan-Jenner Industries, Inc) or kept in the dark. The entire volume of the tube was illuminated. Beta-gal activity was assayed in light-illuminated and “dark” aliquots calorimetrically.

[7] = biological target: T1, pleckstrin homology (PH) domain of phospholipase C delta-1 (PLC delta-1) (Homo sapiens, UniProt P51178); assay: KillerRed-mediated CALI of PH domain in mammalian cells (membrane to cytoplasm translocation); conditions: KillerRed expressed separately from the PH domain, in membrane or cytosol
T1 sequence (P51178 1-224): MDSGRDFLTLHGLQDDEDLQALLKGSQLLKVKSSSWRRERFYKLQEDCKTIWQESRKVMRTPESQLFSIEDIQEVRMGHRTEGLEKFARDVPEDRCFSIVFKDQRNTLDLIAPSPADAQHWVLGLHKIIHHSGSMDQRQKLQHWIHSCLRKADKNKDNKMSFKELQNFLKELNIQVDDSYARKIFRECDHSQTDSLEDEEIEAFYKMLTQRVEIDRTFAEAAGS
From the text: KillerRed-mediated CALI was further tested in mammalian cells (FIG. 7). The pleckstrin homology (PH) domain of phospholipase C delta-1 (PLC delta-1) was used as a model protein. The PH domain locates to the inner leaf of plasma membrane due to its high affinity for membrane phospholipids. It has been shown that in case of direct protein inactivation by dye-generated ROS, the PH domain will lose its membrane affinity and become evenly distributed throughout the cell volume.
A coding sequence for the first 224 amino acids of PLC delta-1 comprising the N-terminal PH-domain was amplified from Fetus Brain cDNA (Clontech) with specific PCR primers. […] Primers used comprised certain restriction sites that were used for following cloning of PCR products into pEGFP-Tub plasmid (Clontech) in frame with EGFP. As a result, a PH domain fusion with EGFP and triple fusions EGFP-PH-KillerRed and EGFP-PH-DsRed-Express operatively linked with CMV promoter were obtained.
The 293T cell-derived Phoenix Eco cell line was transiently transfected with these constructs. Intracellular localization of PLC delta-1 was evaluated using EGFP signal before and after CALI of the PH domain using confocal and fluorescence microscopy. Fluorescence was monitored using a Leica Confocal Microscope DM IRE2 TCS SP2. […]

Chain of beta-gal (Escherichia coli, UniProt P00722, DEL12-42) (P00722 whole entry, stated change not applied, the tested form may be a part): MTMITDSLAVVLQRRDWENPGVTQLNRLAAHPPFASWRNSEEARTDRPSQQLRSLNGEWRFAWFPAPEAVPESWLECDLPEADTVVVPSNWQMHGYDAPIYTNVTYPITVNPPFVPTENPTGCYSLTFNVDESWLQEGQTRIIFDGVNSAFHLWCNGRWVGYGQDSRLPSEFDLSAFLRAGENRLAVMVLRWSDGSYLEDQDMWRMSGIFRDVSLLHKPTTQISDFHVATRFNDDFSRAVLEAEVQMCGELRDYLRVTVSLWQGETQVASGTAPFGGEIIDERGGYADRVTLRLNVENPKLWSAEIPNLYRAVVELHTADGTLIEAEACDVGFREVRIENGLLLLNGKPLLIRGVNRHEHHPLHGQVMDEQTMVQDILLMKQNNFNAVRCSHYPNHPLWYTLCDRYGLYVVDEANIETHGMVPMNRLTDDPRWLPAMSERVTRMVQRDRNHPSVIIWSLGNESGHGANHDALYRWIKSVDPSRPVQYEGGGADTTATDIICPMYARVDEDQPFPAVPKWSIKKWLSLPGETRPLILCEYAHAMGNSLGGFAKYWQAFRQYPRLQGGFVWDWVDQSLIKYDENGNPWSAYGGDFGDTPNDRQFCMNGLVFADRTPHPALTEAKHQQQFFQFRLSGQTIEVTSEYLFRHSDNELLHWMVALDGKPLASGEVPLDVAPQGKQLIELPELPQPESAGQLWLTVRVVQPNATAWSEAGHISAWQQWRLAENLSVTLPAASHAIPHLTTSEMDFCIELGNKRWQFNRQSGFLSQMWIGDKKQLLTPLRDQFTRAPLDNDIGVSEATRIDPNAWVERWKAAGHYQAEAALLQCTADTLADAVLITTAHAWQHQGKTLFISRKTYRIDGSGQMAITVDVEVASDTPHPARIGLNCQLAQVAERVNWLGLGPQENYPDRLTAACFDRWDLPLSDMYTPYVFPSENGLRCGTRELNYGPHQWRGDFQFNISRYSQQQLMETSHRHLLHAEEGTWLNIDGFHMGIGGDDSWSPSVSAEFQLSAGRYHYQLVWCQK
Chain of beta-gal (Escherichia coli, UniProt P00722, DEL12-42) (P00722 with tags, fused parts or gaps DEL12-42): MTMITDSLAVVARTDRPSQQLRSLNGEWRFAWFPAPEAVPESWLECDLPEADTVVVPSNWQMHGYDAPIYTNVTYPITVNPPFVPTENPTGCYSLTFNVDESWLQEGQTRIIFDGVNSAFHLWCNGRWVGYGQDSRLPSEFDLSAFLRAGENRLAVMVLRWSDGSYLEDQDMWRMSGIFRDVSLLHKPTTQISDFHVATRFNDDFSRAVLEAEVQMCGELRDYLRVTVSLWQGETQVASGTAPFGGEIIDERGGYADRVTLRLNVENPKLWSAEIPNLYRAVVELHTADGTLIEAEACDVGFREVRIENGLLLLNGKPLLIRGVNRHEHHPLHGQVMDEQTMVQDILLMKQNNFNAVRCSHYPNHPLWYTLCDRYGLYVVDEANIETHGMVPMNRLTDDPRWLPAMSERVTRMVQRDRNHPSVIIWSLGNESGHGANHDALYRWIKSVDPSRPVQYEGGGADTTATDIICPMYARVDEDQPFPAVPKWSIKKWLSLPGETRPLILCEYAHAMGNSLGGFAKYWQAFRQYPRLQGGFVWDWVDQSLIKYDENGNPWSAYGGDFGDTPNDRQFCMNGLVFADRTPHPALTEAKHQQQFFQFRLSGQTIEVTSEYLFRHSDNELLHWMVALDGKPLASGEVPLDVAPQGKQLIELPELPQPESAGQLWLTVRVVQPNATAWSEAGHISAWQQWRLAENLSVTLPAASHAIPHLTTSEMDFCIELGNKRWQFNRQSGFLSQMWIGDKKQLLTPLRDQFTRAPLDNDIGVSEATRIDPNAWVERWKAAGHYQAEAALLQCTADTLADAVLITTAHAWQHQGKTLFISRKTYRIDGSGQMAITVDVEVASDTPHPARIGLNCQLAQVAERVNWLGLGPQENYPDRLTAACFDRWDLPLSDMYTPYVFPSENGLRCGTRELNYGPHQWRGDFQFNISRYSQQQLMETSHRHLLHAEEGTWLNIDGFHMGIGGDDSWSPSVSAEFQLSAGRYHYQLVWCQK

With CN(C)c1ccc2c(-c3ccccc3C(=O)[O-])c3ccc(N(C)C)cc3[o+]c2c1 [TMRM, tetramethylrhodamine] the cell death (B16 melanoma cells [1]; irradiation for 10 sec, within 1.5 h interval) was “didn't lead to TMRM-loaded cells' death”, the “time to cell death” value (B16 melanoma cells [1]; irradiation for 1 min) was 30 to 40 min and the cell death (B16 melanoma cells [1]; irradiation for 5 minutes or longer) was “immediate cell death”.

With COC(=O)C[C@H](NC(=O)[C@H](C)NC(=O)[C@@H](NC(=O)OCc1ccccc1)C(C)C)C(=O)CF [zVAD-fmk] (Cbz-Val-Ala-Asp(OMe)-CH2F) the “cell survival after identical irradiation” value (B16 melanoma cells [2]) was “survived”.

superoxide dismutase was tested, and the “effect of quencher on CALI of beta-gal” value (beta-gal [3]) was “impeded CALI slightly”.

B1: KillerRed: red fluorescent protein (SEQ ID NO: 4), developed from chromoprotein anm2CP by random mutagenesis; genetically encoded photosensitizer (protein)
chain: EGGPALFQSDMTFKIFIDGEVNGQKFTIVADGSSKFPHGDFNVHAVCETGKLPMSWKPICHLIQYGEPFFARYPNGISHFAQECFPEGLSIDRTVRFENDGTMTSHHTYELDDTCVVSRITVNCDGFQPDGPIMRDQLVDILPNETHMFPHGPDAVRQLAFIGFTTADGGLMMGHFDSKMTFNGSRAIEIPGPHFVTIITKQMRDTSDKRDHVCQREVAYAHSVPRITSAIGSDED
modifications: amino acid sequence for the red fluorescent protein JR18IC+
notes: genetically encoded photosensitizer
With B1 the phototoxic effect [4] was “striking phototoxic effect; also recorded: most strongly expressed”, the bacteria killed ([4]; after 1 hour irradiation with white light) was 99.95% and the cells killed ([5]; after 10 minutes of irradiation with white light) was 96%. The cells killed ([5]; after 20 minutes of irradiation with white light) was about 100%, the cell killing effect (E. coli; blue light irradiation (FITC filter set)) was “weak effect” and the cell killing effect (E. coli; green light irradiation (TRITC filter set)) was “strong cell killing effect”. The “Mortality of irradiated cells” value (293T human kidney cells; green light 10 min, 535-575 nm, 5.8 W/cm2, depending on protein concentration) was 40-60%, the “fate of irradiated cell” value (293T human kidney cells; highly expressing cell, post irradiation with green light 10 min) was “disintegrated within an hour and a half” and the “effect of irradiation on enzyme activity” value (beta-gal [6]) was “no effect”. The “CALI of the PH domain” value [7] was “no detectable CALI”.

B2: S3-2 (protein)
chain: EGGPALFQSDMTFKIFIDGVVNGQKFTIVADGSSKFPHGDFNVHAVCETGKLPMSWKPICHLIQYGEPFFARYPNGISHFAQECFPEGLSIDRTVRFENDGTMTSHHTYELDGTCVVSRITVNCDGFQPDGPIMRDQLVDILPNETHMFPHGPNAVRQLAFIGFTTADGGLMMSHFDSKMTFNGSRAIKIPGPHFVTTITKQMKDTSDKRDHVCQREVTYAHSVPRITSAI
modifications: amino acid sequence for the red fluorescent protein S3-2
In the case of B2, the phototoxic effect [4] is reported as “phototoxic”.

B3: anm2CP: wild type Anthomedusae chromoprotein (SEQ ID NOs: 9 and 10) (protein)
chain: MEGGPALFQSDMTFKIFIDGVVNDQKFTIIADGSSKFPHGDFNVHAVCETGKLPMSWKPICHLIQYGEPFFAKYPNGISHFAQECFPEGLTIDRTVRFENDGTMTSHHTYELDGTCVISRITVNCDGFQPDGPIMKDQLVDILPTETHMFPHGSNAVRQLCYIGFTTADGGLMMSHFDSKLTFNGSRAIKIPGPHFVTVIIKQMKDTSDKRDHVCQREVTYAHSVPRITSAI
modifications: hydromedusa 2 from sub-order Anthomedusae
For B3, the phototoxic effect [4] was “not phototoxic”.
